Results published in patent US20120014998A1.

What follows are substances tested against GroEL (E. coli Cpn60) (E. coli) (UniProt P0A6F5) (assay: cell-based or functional assay).
Sequence of GroEL (E. coli Cpn60) (E. coli) (P0A6F5 2-548 limits assumed): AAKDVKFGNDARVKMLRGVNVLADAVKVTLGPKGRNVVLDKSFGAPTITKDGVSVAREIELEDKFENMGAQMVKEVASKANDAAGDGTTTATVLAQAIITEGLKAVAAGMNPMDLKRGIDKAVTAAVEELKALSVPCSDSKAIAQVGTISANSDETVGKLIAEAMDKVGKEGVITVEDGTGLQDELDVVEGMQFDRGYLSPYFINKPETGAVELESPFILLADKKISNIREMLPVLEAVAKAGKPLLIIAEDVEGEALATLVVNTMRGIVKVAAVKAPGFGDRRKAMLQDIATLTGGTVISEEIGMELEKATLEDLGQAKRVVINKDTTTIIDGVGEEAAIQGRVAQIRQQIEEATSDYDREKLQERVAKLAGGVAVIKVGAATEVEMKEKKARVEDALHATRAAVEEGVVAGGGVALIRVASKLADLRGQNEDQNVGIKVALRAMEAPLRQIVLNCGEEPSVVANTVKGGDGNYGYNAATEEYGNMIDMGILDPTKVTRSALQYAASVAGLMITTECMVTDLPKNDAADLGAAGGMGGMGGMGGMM

Sequence of Ala-Cpn10 (Wild type Cpn10) (P61604 other isoform, or with tags, fused parts or gaps limits assumed): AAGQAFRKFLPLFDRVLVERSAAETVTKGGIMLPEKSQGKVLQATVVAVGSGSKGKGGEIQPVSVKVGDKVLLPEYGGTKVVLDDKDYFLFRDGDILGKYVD
Sequence of Gly-Cpn10 (P61604 other isoform, or with tags, fused parts or gaps limits assumed): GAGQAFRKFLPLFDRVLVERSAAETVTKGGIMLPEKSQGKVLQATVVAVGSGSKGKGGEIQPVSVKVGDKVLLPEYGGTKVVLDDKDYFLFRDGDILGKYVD
Sequence of X-Cpn10 (i.e. non-acetylated) (P61604 2-102 limits assumed): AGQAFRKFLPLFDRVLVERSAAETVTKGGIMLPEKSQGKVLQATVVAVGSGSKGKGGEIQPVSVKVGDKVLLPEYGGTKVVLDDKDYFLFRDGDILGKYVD
Sequence of Ala-Cpn10-cHis (P61604 other isoform, or with tags, fused parts or gaps limits assumed): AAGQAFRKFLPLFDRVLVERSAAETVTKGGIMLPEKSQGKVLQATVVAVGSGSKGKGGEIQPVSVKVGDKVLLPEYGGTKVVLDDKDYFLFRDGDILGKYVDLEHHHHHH

Row | Substance | Refolding activity (% of Ala-Cpn10) (% of Ala-Cpn10)
1 | X-Cpn10 (i.e. non-acetylated) (from UniProt P61604 2-102) | 105
2 | Cpn10-NtermES (from UniProt P61604 11-102) | 12
3 | Gly-Cpn10 (from UniProt P61604 2-102) | 107
4 | Ala-Cpn10-cHis (from UniProt P61604 2-102) | 40
5 | Ala-Cpn10 (Wild type Cpn10) (from UniProt P61604 2-102) | 100
